One molecule from publication PMC10483858 (Molecular Cancer, 2023) can be followed below.

The test concerns the target T1, PD-L1 of the commercial HTRF PD-1/PD-L1 interaction assay.
T1 construct: PD-L1 as supplied in the Cisbio HTRF kit
Briefly: AlphaScreen or HTRF; commercial HTRF PD-1/PD-L1 interaction assay (Cisbio, France); pAC65 varied; data fitted with Hill's model. The conditions noted are these: both partners purified. On the technique in general: In Alpha technology, singlet oxygen from a donor bead excites a nearby acceptor bead.

Where no end group is shown, it is not given here. [ ]: non-standard residue; d: D form. TrpNAc = Trp with an acetic acid moiety; Hyp = O=C(O)[C@@H]1C[C@@H](O)CN1; NMeNle = CCCC[C@H](NC)C(=O)O; NMeA = CN[C@@H](C)C(=O)O; Dab = NCC[C@H](N)C(=O)O; Scc = not defined here

B1: pAC65 macrocyclic peptide (peptide)
chain: Y[NMeA]NP[Ala‑NH2]L[Hyp]W[Dab][TrpNAc][NMeNle][NMeNle]L[Scc]G-NH2
modifications: bridge (positions not given here); not fully specified (bridges); reading uncertain; also: macrocyclic ring, places not given here
Broadly, the IC50 is the point on the concentration scale where inhibition reaches its midpoint. A low value points to greater potency. For B1, it took 1.8 ± 0.16 nM to reach half-maximal inhibition (IC50).
